Patent US20160207996A1 (ARGEN X N V, published 2016)

Experiments:
Nt-GCGR-hFc [1] = molecular target: T1, Nt-GCGR-hFc (human, UniProt P47871 26-136); test: ELISA with a titration of biotin-Nt-GCGR (x axis) against the mAbs, OD620
T1 construct: domain: N-terminal domain; also called Nt-GCGR-Fc; recombinant N-terminal domain of GCGR; not shown: hFc

Nt-GCGR-hFc [2] = molecular target: T1, Nt-GCGR-hFc; test: mAb binding ELISA on coated Nt-GCGR-hFc
Method: Binding to GCGR- and CXCR4-lipoparticles (negative control) (A) and binding to Nt-GCGR-hFc (B). Lipoparticles were coated at 10 U/well. Nt-GCGR was coated at 1 μg/ml. mAbs were allowed to bind to the coated target at 1 μg/ml.

T1 sequence (P47871 26-136): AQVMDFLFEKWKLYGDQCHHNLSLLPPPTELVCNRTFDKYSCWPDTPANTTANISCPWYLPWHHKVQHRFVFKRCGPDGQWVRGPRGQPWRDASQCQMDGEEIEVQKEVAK

Row | Binder | binding result (Nt-GCGR-hFc [1]) | binding result (Nt-GCGR-hFc [2])
1 | mAb 6A5 (antibody, IgG1, V domains shown) VH: EVQLQESGGGSVQPGGSLRLSCAASGFTFSANAMTWVRQAPGKGLEWVSAISGTGASTSYADSVKGRFTVSRDNAKNTLYLQVNNLKPEDTAVYRCAKLGGDTWYMEYWAKGTLVTVSS VL: SYELTQSPSVSVALRQTAKITCGGDNIGSKYVNWYQQKPSQTPVLVIYKDSNRPSGIPERFSGSNSGNTAALTISGAQAEDEADYYCQVWDGSAAVFGGGTHLSVLG | no binding (tested: about 20 ng/ml biotin-Nt-GCGR) | –
2 | mAb 6B7 (antibody, IgG1, V domains shown) VH: QLQLVESGGGLVQPGGSLRLSCAASGFTFSSNAMTWVRQAPGKGLEWVSAISSTGNSITEADSVKGRFTISRDNAKNMLYLQMNSLKPEDTAVYYCAKLGGDTWYMEYWGQGTQVTVSS VL: SSALTQPSAVSVSLGQTARITCQGDNFGSIDPHWYQQKPGQDPVVVIYQYNNRPSGIPERFSGLKSGNTATLIISGAQAEDEADYYCQLWDSRAKAVFGGGTHLTVLG | – | no binding (tested: 1 µg/ml)
3 | mAb 6D8 (antibody, IgG1, V domains shown) VH: QLQLVESGGGLVQPGGSLRLSCAASGFTFSSNAMTWVRQAPGKGLEWVSAISSTGNSITEADSVKGRFTISRDNAKNMLYLQMNSLKPEDTAVYYCAKLGGDTWYMEYWGQGTQVTVSS VL: SYELTQSPSVSVALRQTAKITCGGNGIGSKIVHWYQQKPGQAPVLVIYADVRRPSEIPERFSGSNSGDTATLTVSGAQAEDEADYYCQVWDSSANAAVFGGGTHLTVLG | – | no binding (tested: 1 µg/ml)
